Source: the RNAGym collection of RNA variant scans (doi:10.1073/pnas.2313332121)

B1: TPR t1 (parent)
chain: GACCAAUCUGCCCUCAGAGCUCGAGAACAUCUUCGGAUGCAGAGGAGGCAGGCUUCGGUGGCGCGAUAGCGCCAACGUCCUCAACCUCCAAUGCAUCCCACCACAUGAUGAUGCCUGAAGAGCCUUGGUUUUUUG

Variants of: B1
Assay: polymerase ribozyme fitness, log enrichment relative to wild type (log ratio); higher = more active; in vitro selection for triplet polymerase activity
Method in brief: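 Mutant libraries of each subunit of a heterodimeric triplet polymerase ribozyme were built by PCR and transcribed. Each library went through one round of in vitro selection in triplicate: annealing with biotinylated primer, partner subunit and triplets, frozen incubation at −7 °C, gel excision of extended constructs, streptavidin-bead capture and RT-PCR. Input and output libraries were Illumina-sequenced; only genotypes with ≥10 input reads and ≥1 read per output were kept. Fitness is log2(genotype enrichment/wild-type enrichment), using inverse-variance-weighted replicate averages.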

Point of comparison: GACCAAUGUGCCCACAGAGCUCGAGAACGUCUUCGGAUGGAGAUGAGGCAGGCUUCCGUGGCGCGAUAGCGCCAACGUCCUCAACCUCCAAUGCAUCCCACCACAUGAUGAUGCCUGAAGAGCCUUGGUUUUUUG [C8G U14A A29G C40G G44U G57C], “polymerase ribozyme fitness (log ratio)” value -2.63. Against it:
- GACCAAUGUGCCCUCAGAGCACGAGAACAUCUUCGGAUGCAGAGGAGGCAGGCUUCGGUGGCGCGAUAGCGCCAAGGUCCUCAACCUCCAAUGCAUCCAACCACAUGAUGAAGCCUGAAGAGCCUUGGUUUUUUG [C8G U21A C76G C99A U112A] — lower, -5.05
- GACCAAUGAGCCCUCACAGCUCGAGAACAUCUUCGGAUGCAGAGGAGGCAGGCUUCGGUGGCGCGAUAGCGCCAACGUCCUCAACCUCCAAUGCGUCCCACCACAUGAUGAUGCAUGAAGAGCCUUGGUUUUUUG [C8G U9A G17C A95G C115A] — higher, -0.322
- GACCAAUGUGCCCGCAGAGCUCGAGAACAUCUUCGUAUGCAGAGGAGGCAGGCUUCGGUGGCGCGAUAGCGCCAACGUCUUCAACCUCCAAUGCAUCCCACCACAUGAUGAUGCCUGAAAAGCCUUGGUUUUUUG [C8G U14G G36U C80U G120A] — higher, 1.03
- GACCAAUGUGCCCACAGAGCUCGAGAACAUCUUCGGAUGCAGAGGAGGCAGGCUUCAGUGGCGCGAUAGCGCCAACGUCCUCAACCUCCAAUGCAUUCCACCCCAUGAUGAUGCCUGAAGAGCCUUGGUUUUUUG [C8G U14A G57A C97U A103C] — lower, -6.07
- GACCAAUGUGCCCCCAGAGCUCGAGAACAUCCUCGGAUGCAGAGGAGACAGUCUUCGGUGGCGCGAUAGCGCCAACGUCCUCAACCUCCAAUGCUUCCCACCACAUGAUAAUGCCUGAAGAGCCUUGGUUUUUUG [C8G U14C U32C G48A G52U A95U G110A] — lower, -4.18
- GACCAAUGUGCCCUCAGAGCUCGAGAACAUCUUCGGAUGCAGAGGAGGCAGGCUUCGGUGGCGCGAUAGCGCCAACGCCCUCAACCUCCAAUACAUCCCACCACAUGAUGAUGCCUGAAGAGACUUGGUUUUUUG [C8G U78C G93A C123A] — higher, 1.83
- GACCAAUGUGCCCUCAGAGCUCGAGAACAUCUUCGGAUGCAGAGGAGGCAGGCUUCGGUGGCGCGAUAGCGCCAACGUCCUCAACCUCCAAUGCACCCCACCACAUGAUGAUGCCUGAAGAGCCUUGGUUUUUUG [C8G U96C] — higher, 0.587
- GACCAAUGUGCCCUCAGAGCUCGAGAACAUCUUCGGAUGCAGAGGAGGCAGGCUUCGGUGGCGCGAUAGCGCCAACGUCCUCAACCACCAAUGCAGCCCACCACAUGAUUAUGCCUGAAGACCCUUGGCUUUUUG [C8G U87A U96G G110U G122C U129C] — lower, -3.4
- GACCAAUGUGCCCUCAGAGCCGGAGAACAUCUUCGGAUGCAGAGGAGGCAGGCUUCGGUGGCGCGAUAGCGCCAACGUCCUCAACCUCCAAUGCAUCCCACCACAUGAUGAUGCCUCAAGAGUAUUGGUUUUUUG [C8G U21C C22G G117C C123U C124A] — lower, -4.09
- GACCAAUGUGCCCGCAGAGCUCGAGAACAUCUUCCGAUGCAGAGGAGGCAGGCUUCGGUGGCGUGAUAGCGCCAACGUCCUCAACCUCCAAUGUAUCCCACCACAUGAUGAUGCCUGAAGAGCCUUGGUUUUUUG [C8G U14G G35C C64U C94U] — lower, -3.36
- GACCAAUGUGCCCUCAGAGCUCGAGAACAUCUGCGGAUGCAGAGGAGGCAGGCUUCGGUGGCGCGAUAGCGCCAACGUCCUCAACCUCCAAUGCAUCCAAACACAUGAUGAUGCCUGAAGAGCCUUGGUUUUUUG [C8G U33G C99A C101A] — lower, -5.4
- GACCAAUGUGCCCGCAGAGCUCGAGAACAUCUUCGGAUGCAGAGGAGGCAGGUUUCGGUGGCGCGAUAGCUCCAACGUCCUCAACCUCCAAUGCAUCCCACCACAUGAUGAUGCCUGAAGAGCCUUGGUUUUUUG [C8G U14G C53U G71U] — higher, 0.478
- GACCAAUUUGCCCUCCGAGCUCGAGAACAUCUUCGGAUGCAGAGGAGGCAGGCUUCGGUGGCGUGAUAGCGCCAACGUCCUCAACCUCCAAUGCAUCCCACCACAUGAUGACGCCUGAAGAGCCUUGGUUUAUUG [C8U A16C C64U U112C U132A] — higher, 1.19
- GACCAAUGUGCCCUCAGAGCUCGAGAACAUCAUCGGAUGCAGAGGAGGCAGGCUUCGGUGGCGCGAUAGCGCCAACGUCCUCAACCUCCAAUGCAUCCCACCACAUGAUGAUGCCUGAAGAGCCUUGGUUUUUUG [C8G U32A] — lower, -3.34
- GACCAAUGUGCCCUCAGAGCUCGAGAACAUCUGCGGAUGCAGAGGAGGCAGGCUUCGGUGGCGCGAUAGCGGCAACGUCUUCAACCUCCAAUGCAUCCCACCUCAUGAUCAUGCCUGAAGCGCCUUGGCUUUUUG [C8G U33G C72G C80U A103U G110C A121C U129C] — lower, -7.86
- GACCAAUUUGCCCUCUGAGCUCGAGAACAUCUUCGCAUGCAGAGGAGGCAGUCUUCGGUGGCGCGAUAGCGCCAACGUCCUCAACCUCCAAUGCAUACCACCACAUGAUGAUGCCUGAAGAGCCUUGGUUUUUUG [C8U A16U G36C G52U C97A] — lower, -2.9
- GACCAAUUUGCCCUCUGAGCUCGAGAACAUCUUCGGAUGCAGAGGAAGCAGGCUUCGGUGGCGCGAUAGCGCCAACGUCCUCAACCUCCAAUGCAUCCCAACACAUGAUGAUGCCUGAAGAGCUUUGGUUUUUUG [C8U A16U G47A C101A C124U] — higher, -1.94
- GACCAAUGCGCCCUCGGAGCUCGUGAAUAUCUUCGGAUGCAGAGGAGGCAGGCUUCGGUGGCGCGAUAGCGCCAACGUCCUCAACCUCCAACGCAACCAACCACAUGAUGUUGCCUGAACAGCCUUGGUUUUUUG [C8G U9C A16G A24U C28U U92C U96A C99A A111U G120C] — lower, -6.18
- GACCAAUGUGCCCUCAGAGCCCGAGAACAUCUUCGGAUGCAGAGUAGGGAGGCUUCGGUGGCGCGAUAGCGCCAACGUCCUCAACCUCCAAUGCAUCCCACCACAUGAUGAUGCCUGAAGAGCCUUGGUUUUUUG [C8G U21C G45U C49G] — higher, -0.918
- GACCAAUGUGCCCUCAGAGCUCGAGAACAUCUUCGGAUGCAGAGGAGGCAGGCUUCGGUGGCGCGAUAGCGCCAACGUCCUCAACCACCAAUGCAUCCCACCACAUGAUGAGUCCUGAAGAGUCUUAGUUUUUUG [C8G U87A U112G G113U C123U G127A] — lower, -3.6
